Assay [1] has as its target T1, HER2 on the surface of HER2 overexpressing cancer cells (BT474) (human, UniProt P04626 23-1255).
T1 construct: whole, on cells; also called ErbB2; HER2/Neu
The assay can be described thus: flow cytometry, dissociation from BT474 cells in the presence of a competing DARPin (FIG. 18A).
Protocol: Corresponding to 100 μl cell suspension, samples were washed twice in 1 ml PBS (0.2% NaN₃, 1% BSA) and centrifuged at 600 g for 30 sec at room temperature. Cells were resuspended in 1 ml PBS (0.2% NaN₃, 1% BSA) containing 100 nM of equivalent unlabeled binding agent. The dissociation reaction was incubated for the indicated times (15, 30, 60, 120, 180 and 240 min) at room temperature while continuously stirring in the dark. Dissociation was stopped by placing the cell pellets on ice. Each sample was washed once with 1 ml cold PBS.

Assay [2] concerns the target T1, HER2 on the surface of HER2 …. As to the kind of experiment: flow cytometry on BT474 cells, Alexa488-labelled agent.
The target of assay [3] is T2, HER2 (form used in the assay not stated) (human, UniProt P04626 23-652, limits assumed).
T2 construct: also called ErbB2
The assay can be described thus: method not stated.

Assay [4] has as its target T2, HER2 (form used in the assay not stated). The assay can be described thus: method not stated. This is another data set of the same source.

Read-outs that look alike come from different tables or passages of the source.

B1: 9_26-(G4S)4-G3 (designed binder)
chain: MRGSHHHHHHGSDLGKKLLEAARAGQDDEVRILMANGADVNAKDFYGITPLHLAAAYGHLEIVEVLLKHGADVNAHDWNGWTPLHLAAKYGHLEIVEVLLKHGADVNAIDNAGKTPLHLAAAHGHLEIVEVLLKYGADVNAQDKFGKTAFDISIDNGNEDLAEILQKLGGGGSGGGGSGGGGSGGGGSRSDLGKKLLEAARAGQDDEVRILMANGADVNAKDEYGLTPLYLATAHGHLEIVEVLLKNGADVNAVDAIGFTPLHLAAFIGHLEIAEVLLKHGADVNAQDKFGKTAFDISIGNGNEDLAEILQKLN
notes: also called 6_20_G
With B1, the “off-rate, times lower than monovalent G3” value in assay [1] came out at 10 fold.

B2: DARPin 929 (designed binder)
chain: MRGSHHHHHHGSDLGKKLLEAARAGQDDEVRILMANGADVNAHDFYGITPLHLAANFGHLEIVEVLLKHGADVNAFDYDNTPLHLAADAGHLEIVEVLLKYGADVNASDRDGHTPLHLAAREGHLEIVEVLLKNGADVNAQDKFGKTAFDISIDNGNEDLAEILQKLN
In the case of B2, in assay [2], the Kd was determined as 33.5 nM, the off-rate (koff) is 0.00221 s⁻¹ and the kon turned out to be 69000 M⁻¹ s⁻¹. This molecule also came in with a Kd in assay [3] of 1 nM. Further, in assay [4], the dissociation constant Kd amounted to 3.8 nM, the koff was 0.0008 s⁻¹ and the on-rate constant (kon) is 200000 M⁻¹ s⁻¹.

B3: 9_29-(G4S)4-G3 (designed binder)
chain: MRGSHHHHHHGSDLGKKLLEAARAGQDDEVRILMANGADVNAHDFYGITPLHLAANFGHLEIVEVLLKHGADVNAFDYDNTPLHLAADAGHLEIVEVLLKYGADVNASDRDGHTPLHLAAREGHLEIVEVLLKNGADVNAQDKFGKTAFDISIDNGNEDLAEILQKLGGGGSGGGGSGGGGSGGGGSRSDLGKKLLEAARAGQDDEVRILMANGADVNAKDEYGLTPLYLATAHGHLEIVEVLLKNGADVNAVDAIGFTPLHLAAFIGHLEIAEVLLKHGADVNAQDKFGKTAFDISIGNGNEDLAEILQKLN
notes: also called 9_20_G
B3: the “off-rate, times lower than monovalent G3” value in assay [1] turned out to be 10 fold.

Source of the values: patent publication US20220135700A1 (published 2022).
